Reference: the supplement of paper PMC5998384

Experiments:
[1] = test system: HeLa Kyoto; assay: solubility change mitosis vs G1/S (difference of NP-40 vs SDS log2 ratios) (log2 ratio difference); higher = more soluble in mitosis
[2] = test system: HeLa Kyoto; assay: thermal stability score vs G1/S (z-score of summed log2 fold changes over temperatures); higher = more thermally stable than in G1/S
[3] = test system: HeLa Kyoto; assay: melting temperature (median over replicates), in situ; higher = more thermally stable
[4] = test system: HeLa Kyoto; assay: solubility in G1/S (NP-40 vs SDS abundance) (log2 ratio); higher = more soluble; conditions: cell cycle stage: G1/S
[5] = cell cycle stage: early G1 (4.5 h after nocodazole release)
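For melting temperature (median over replicates), in situ in this document: HeLa Kyoto cells synchronized by double thymidine or nocodazole block, proteins quantified by TMT10plex mass spectrometry, three independent biological replicates.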
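For solubility change mitosis vs G1/S (difference of NP-40 vs SDS log2 ratios) in this document: synchronized HeLa Kyoto cells (double thymidine block for G1/S, nocodazole release for mitosis), protein amounts in NP-40 versus SDS lysates quantified by mass spectrometry, three biological replicates.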
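For solubility in G1/S (NP-40 vs SDS abundance) in this document: HeLa Kyoto cells arrested at G1/S by double thymidine block, proteins quantified by TMT10plex mass spectrometry in mild NP-40 versus SDS extracts, three biological replicates.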
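For thermal stability score vs G1/S (z-score of summed log2 fold changes over temperatures) in this document: synchronized HeLa Kyoto cells, proteins quantified by TMT10plex mass spectrometry, three biological replicates, mitosis taken 0.5 h after nocodazole release, G1/S directly after double thymidine block.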

Sequence	solubility change mitosis (log2) [1]	thermal stability score [2, 5]	thermal stability score ([2]; cell cycle stage: mitosis)	melting temperature ([3]; cell cycle stage: G1/S)	melting temperature ([3]; cell cycle stage: mitosis)	solubility in G1/S (log2) [4]
MEMFTFLLTCIFLPLLRGHSLFTCEPITVPRCMKMAYNMTFFPNLMGHYDQSIAAVEMEHFLPLANLECSPNIETFLCKAFVPTCIEQIHVVPPCRKLCEKVYSDCKKLIDTFGIRWPEELECDRLQYCDETVPVTFDPHTEFLGPQKKTEQVQRDIGFWCPRHLKTSGGQGYKFLGIDQCAPPCPNMYFKSDELEFAKSFIGTVSIFCLCATLFTFLTFLIDVRRFRYPERPIIYYSVCYSIVSLMYFIGFLLGDSTACNKADEKLELGDTVVLGSQNKACTVLFMLLYFFTMAGTVWWVILTITWFLAAGRKWSCEAIEQKAVWFHAVAWGTPGFLTVMLLAMNKVEGDNISGVCFVGLYDLDASRYFVLLPLCLCVFVGLSLLLAGIISLNHVRQVIQHDGRNQEKLKKFMIRIGVFSGLYLVPLVTLLGCYVYEQVNRITWEITWVSDHCRQYHIPCPYQAKAKARPELALFMIKYLMTLIVGISAVFWVGSKKTCTEWAGFFKRNRKRDPISESRRVLQESCEFFLKHNSKVKHKKKHYKPSSHKLKVISKSMGTSTGATANHGTSAVAITSHDYLGQETLTEIQTSPETSMREVKADGASTPRLREQDCGEPASPAASISRLSGEQVDGKGQAGSVSESARSEGRISPKSDITDTGLAQSNNLQVPSSSEPSSLKGSTSLLVHPVSGVRKEQGGGCHSDT [FZD6]	0.0773	-1.37	-2.82	54.7 °C	55.6 °C	-0.0341
MAAAAGPGAALSPRPCDSDPATPGAQSPKDDNEDNSNDGTQPSKRRRMGSGDSSRSCETSSQDLGFSYYPAENLIEYKWPPDETGEYYMLQEQVSEYLGVTSFKRKYPDLERRDLSHKEKLYLRELNVITETQCTLGLTALRSDEVIDLMIKEYPAKHAEYSVILQEKERQRITDHYKEYSQMQQQNTQKVEASKVPEYIKKAAKKAAEFNSNLNRERMEERRAYFDLQTHVIQVPQGKYKVLPTERTKVSSYPVALIPGQFQEYYKRYSPDELRYLPLNTALYEPPLDPELPALDSDGDSDDGEDGRGDEKRKNKGTSDSSSGNVSEGESPPDSQEDSFQGRQKSKDKAATPRKDGPKRSVLSKSVPGYKPKVIPNAICGICLKGKESNKKGKAESLIHCSQCENSGHPSCLDMTMELVSMIKTYPWQCMECKTCIICGQPHHEEEMMFCDMCDRGYHTFCVGLGAIPSGRWICDCCQRAPPTPRKVGRRGKNSKEG [PHF10]	0.132	1.13	2.91	49.5 °C	49.4 °C	0.128
MSLQSAQYLRQAEVLKADMTDSKLGPAEVWTSRQALQDLYQKMLVTDLEYALDKKVEQDLWNHAFKNQITTLQGQAKNRANPNRSEVQANLSLFLEAASGFYTQLLQELCTVFNVDLPCRVKSSQLGIISNKQTHTSAIVKPQSSSCSYICQHCLVHLGDIARYRNQTSQAESYYRHAAQLVPSNGQPYNQLAILASSKGDHLTTIFYYCRSIAVKFPFPAASTNLQKALSKALESRDEVKTKWGVSDFIKAFIKFHGHVYLSKSLEKLSPLREKLEEQFKRLLFQKAFNSQQLVHVTVINLFQLHHLRDFSNETEQHTYSQDEQLCWTQLLALFMSFLGILCKCPLQNESQEESYNAYPLPAVKVSMDWLRLRPRVFQEAVVDERQYIWPWLISLLNSFHPHEEDLSSISATPLPEEFELQGFLALRPSFRNLDFSKGHQGITGDKEGQQRRIRQQRLISIGKWIADNQPRLIQCENEVGKLLFITEIPELILEDPSEAKENLILQETSVIESLAADGSPGLKSVLSTSRNLSNNCDTGEKPVVTFKENIKTREVNRDQGRSFPPKEVRRDYSKGITVTKNDGKKDNNKRKTETKKCTLEKLQETGKQNVAVQVKSQTELRKTPVSEARKTPVTQTPTQASNSQFIPIHHPGAFPPLPSRPGFPPPTYVIPPPVAFSMGSGYTFPAGVSVPGTFLQPTAHSPAGNQVQAGKQSHIPYSQQRPSGPGPMNQGPQQSQPPSQQPLTSLPAQPTAQSTSQLQVQALTQQQQSPTKAVPALGKSPPHHSGFQQYQQADASKQLWNPPQVQGPLGKIMPVKQPYYLQTQDPIKLFEPSLQPPVMQQQPLEKKMKPFPMEPYNHNPSEVKVPEFYWDSSYSMADNRSVMAQQANIDRRGKRSPGVFRPEQDPVPRMPFEKSLLEKPSELMSHSSSFLSLTGFSLNQERYPNNSMFNEVYGKNLTSSSKAELSPSMAPQETSLYSLFEGTPWSPSLPASSDHSTPASQSPHSSNPSSLPSSPPTHNHNSVPFSNFGPIGTPDNRDRRTADRWKTDKPAMGGFGIDYLSATSSSESSWHQASTPSGTWTGHGPSMEDSSAVLMESLKSIWSSSMMHPGPSALEQLLMQQKQKQQRGQGTMNPPH [SMG7]	-0.127	0.868	1.4	50.4 °C	49.3 °C	0.0703
